Biological target: SARS-CoV (2003) RBD (SARS-CoV, UniProt P59594)
Experiment: BLI

B1: VHH-Fc (antibody, V domains shown)
VH: QVQLQESGGGLVQTGGSLRLSCAASGSFFSINDMGWYRQAPGKQRELVAMITGDDSTNYADSVKGRFTISRDNLKNTVYLQMNSLKPEDTALYYCNAEVKVIIWDSRFNYYWGQGTQVTVSS
Kd: 0.013 µM

From patent US20260356921 (published 2026)
